B1: anti-TNF-α VHH62 (SEQ ID NO:47) sdAb (VHH)
VHH: QVQLVESGGGPVQAGETLRLSCTASGFTFAEADMGWYRQAPGHECELVSTITTEGITSEASSYYADSVRGRFTISRDNAKNMVYLQMNSLKPEDTAVYYCAPDPYAYSTYSDYCSWAQGTQGTLVTVSS
B2: anti-TNF-α VHH69 (SEQ ID NO:46) sdAb (VHH)
VHH: EVQLVESGGGSVLAGGSLRLSCVASGFTSRYNYMAWFRQAPGKEREGVATIGTASGSADYYGSVKDRFTISQDNAKNTVYLQMNSLKPEDTAMYYCAARTYGTISLTPSDYRYWGQGTLVTVSS

What was measured:
[1] = molecular target: T1, active human TNF-α full length protein (human, UniProt P01375 77-233); experiment: ELISA, TNF coat 0.25 µg/mL, sdAb 1 µg/mL, anti-llama 1:5,000, HRP 1:25,000
[2] = molecular target: T1, active human TNF-α full length protein; experiment: ELISA, TNF coat 0.125 µg/mL, sdAb 1 µg/mL, anti-llama 1:5,000, HRP 1:25,000
[3] = molecular target: T1, active human TNF-α full length protein; experiment: ELISA, TNF coat 0.5 µg/mL, sdAb 1 µg/mL, anti-llama 1:5,000, HRP 1:50,000
[4] = molecular target: T1, active human TNF-α full length protein
[5] = molecular target: T1, active human TNF-α full length protein; experiment: ELISA, TNF coat 0.125 µg/mL, sdAb 1 µg/mL, anti-llama 1:5,000, HRP 1:50,000
[6] = molecular target: T1, active human TNF-α full length protein; experiment: ELISA, TNF coat 0.25 µg/mL, sdAb 1 µg/mL, anti-llama 1:5,000, HRP 1:50,000
[7] = molecular target: T1, active human TNF-α full length protein; experiment: ELISA, TNF coat 0.5 µg/mL, sdAb 1 µg/mL, anti-llama 1:10,000, HRP 1:25,000
[8] = molecular target: T1, active human TNF-α full length protein; experiment: ELISA, TNF coat 0.25 µg/mL, sdAb 1 µg/mL, anti-llama 1:10,000, HRP 1:25,000
[9] = molecular target: T1, active human TNF-α full length protein; experiment: ELISA, TNF coat 0.125 µg/mL, sdAb 1 µg/mL, anti-llama 1:10,000, HRP 1:25,000
[10] = molecular target: T1, active human TNF-α full length protein; experiment: ELISA, TNF coat 0.125 µg/mL, sdAb 1 µg/mL, anti-llama 1:10,000, HRP 1:50,000
[11] = molecular target: T1, active human TNF-α full length protein; experiment: ELISA, TNF coat 0.5 µg/mL, sdAb 1 µg/mL, anti-llama 1:5,000, HRP 1:25,000
[12] = molecular target: T1, active human TNF-α full length protein; experiment: ELISA, TNF coat 0.5 µg/mL, sdAb 1 µg/mL, anti-llama 1:10,000, HRP 1:50,000
[13] = molecular target: T1, active human TNF-α full length protein; experiment: ELISA, TNF coat 0.25 µg/mL, sdAb 1 µg/mL, anti-llama 1:10,000, HRP 1:50,000

T1 sequence (P01375 77-233 limits assumed): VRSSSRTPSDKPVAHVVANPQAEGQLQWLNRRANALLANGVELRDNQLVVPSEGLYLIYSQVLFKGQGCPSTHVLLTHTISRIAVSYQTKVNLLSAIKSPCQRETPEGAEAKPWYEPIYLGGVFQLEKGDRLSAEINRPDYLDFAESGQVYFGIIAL

Row | Binder | Signal/Noise Ratio [1] | Signal/Noise Ratio [2] | Signal/Noise Ratio [3] | binding result [4] | Signal/Noise Ratio [5] | Signal/Noise Ratio [6] | Signal/Noise Ratio [7] | Signal/Noise Ratio [8] | Signal/Noise Ratio [9] | Signal/Noise Ratio [10] | Signal/Noise Ratio [11] | Signal/Noise Ratio [12] | Signal/Noise Ratio [13]
1 | B1 | 1.5 ratio | 1.1 ratio | 1.9 ratio | no binding (tested: 1 µg/mL) | 1.1 ratio | 1.4 ratio | 1.7 ratio | 1.4 ratio | 1.1 ratio | 0.9 ratio | 2 ratio | 1.5 ratio | 1.3 ratio
2 | B2 | 3.2 ratio | 1.6 ratio | 7.5 ratio | – | 1.6 ratio | 2.4 ratio | 5.9 ratio | 2.1 ratio | 1.5 ratio | 1.3 ratio | 8 ratio | 3.7 ratio | 1.9 ratio

Reference: patent US20190177437A1 (SINGH MOLECULAR MEDICINE, published 2019)
